Results as given in ChEMBL document CHEMBL1671717, “In vitro potentiation of carbapenems with ME1071, a novel metallo-beta-lactamase inhibitor, against metallo-beta-lactamase- producing Pseudomonas aeruginosa clinical isolates” (Antimicrob Agents Chemother, 2010).
Active and inactive are the calls of the source. The calls are words filed in the database; no cut-off is given here.

Legend:
Pseudomonas aeruginosa [1] = assay: Inhibition of Pseudomonas aeruginosa Metallo-beta-lactamase assessed as potentiation of piperacillin antimicrobial activity
Pseudomonas aeruginosa [2] = assay: Inhibition of Pseudomonas aeruginosa Metallo-beta-lactamase assessed as decrease in biapenem resistance rate at 32 ug/ml
Pseudomonas aeruginosa [3] = assay: Inhibition of Pseudomonas aeruginosa Metallo-beta-lactamase assessed as increase in biapenem susceptible rate at 32 ug/ml; set-up: scale not given: the % may be the effect or the level left
Pseudomonas aeruginosa [4] = assay: Inhibition of Pseudomonas aeruginosa Metallo-beta-lactamase assessed as potentiation of aztreonam antimicrobial activity
[5] = tested on: C[C@@H](O)[C@H]1C(=O)N2C(C(=O)O)=C(SCCNC=N)C[C@H]12; assay: (§1) Activity of Pseudomonas aeruginosa beta-lactamase VIM-2 by UV spectrophotometric analysis
[6] = tested on: C[C@@H](O)[C@H]1C(=O)N2C(C(=O)[O-])=C(SC3Cn4cnc[n+]4C3)[C@H](C)[C@H]12; assay: as §1
[7] = tested on: C[C@@H](O)[C@H]1C(=O)N2C(C(=O)O)=C(SCCNC=N)C[C@H]12; assay: (§2) Ratio of Kcat to Km for Pseudomonas aeruginosa beta-lactamaseVIM-2 by UV spectrophotometric analysis
[8] = tested on: C[C@@H](O)[C@H]1C(=O)N2C(C(=O)[O-])=C(SC3Cn4cnc[n+]4C3)[C@H](C)[C@H]12; assay: as §2

| Compound | Activity (Pseudomonas aeruginosa [1]) | inhibition (Pseudomonas aeruginosa [2]) [%] | Activity (Pseudomonas aeruginosa [3]) [%] | Activity (Pseudomonas aeruginosa [4]) | Km [5] [µM] | kcat [5] [s⁻¹] | Km [6] [µM] | kcat [6] [s⁻¹] | kcat/Km [7] [M⁻¹ s⁻¹] | kcat/Km [8] [M⁻¹ s⁻¹] |
| --- | --- | --- | --- | --- | --- | --- | --- | --- | --- | --- |
| CC/C(C(=O)O)=C(\CC)C(=O)O | inactive | 40 | 22 | inactive | – | – | – | – | – | – |
| Beta-lactamase VIM-2 (Pseudomonas aeruginosa) (from UniProt Q9K2N0) | – | – | – | – | 8.5 | 98.9 | 24.7 | 12.4 | 1.2e+07 | 500000 |
